Changes are numbered by the printed parent chain.
T1: human FcγRIIa type H (human, UniProt P12318 36-217)
T1 construct: also called FcgRIIaH; FcγRIIa(H)
T1 sequence: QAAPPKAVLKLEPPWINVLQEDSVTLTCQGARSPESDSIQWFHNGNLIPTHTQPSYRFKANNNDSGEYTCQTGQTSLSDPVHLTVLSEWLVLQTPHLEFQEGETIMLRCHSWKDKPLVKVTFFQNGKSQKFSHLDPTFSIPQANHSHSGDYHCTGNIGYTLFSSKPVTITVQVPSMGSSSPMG

T2: human FcγRIIa type R (human, UniProt P12318 36-217)
T2 construct: also called FcgRIIaR; FcγRIIa(R)
T2 chain: T1 sequence with H133R

T3: human FcγRIIb (human, UniProt P31994 43-217, limits assumed)
T3 construct: also called FcgRIIb; FcγIIB
T3 sequence: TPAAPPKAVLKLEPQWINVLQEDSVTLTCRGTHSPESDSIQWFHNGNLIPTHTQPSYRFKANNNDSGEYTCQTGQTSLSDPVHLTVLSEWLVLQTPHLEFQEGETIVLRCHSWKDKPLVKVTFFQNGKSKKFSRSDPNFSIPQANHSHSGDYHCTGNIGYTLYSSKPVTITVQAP

T4: human FcγRIIa type H (human, UniProt P12318 36-217)
T4 construct: also called FcyRIIaH; FcγRIIa(H)
T4 sequence: T1 sequence

B1: IL6R-BP088/IL6R-L (antibody, human IgG1, name in EU numbering)
heavy: QVQLQESGPGLVKPSETLSLTCAVSGHSISHDHAWSWVRQPPGEGLEWIGFISYSGITNYNPSLQGRVTISRDNSKNTLYLQMNSLRAEDTAVYYCARSLARTTAMDYWGEGTLVTVSSASTKGPSVFPLAPSSKSTSGGTAALGCLVKDYFPEPVTVSWNSGALTSGVHTFPAVLQSSGLYSLSSVVTVPSSSLGTQTYICNVNHKPSNTKVDKKVEPKSCDKTHTCPPCPAPELLGDDSVFLFPPKPKDTLMISRTPEVTCVVVDVSHEDPEVKFNWYVDGVEVHNAKTKPREEQYNSTYRVVSVLTVLHQDWLNGKEYKCKVSNAALPKPIEKTISKAKGQPREPQVYTLPPSRDELTKNQVSLTCLVKGFYPSDIAVEWESNGQPENNYKTTPPVLDSDGSFFLYSKLTVDKSRWQQGNVFSCSVMHEALHNHYTQESLSLSP
light: DIQMTQSPSSLSASVGDRVTITCRASQDISSYLNWYQQKPGKAPKLLIYYTSRLHSGVPSRFSGSGSGTDFTFTISSLQPEDIATYYCQQGNTLPYTFGQGTKVEIK
notes: copies: 2 + 2
B2: IL6R-BP183/IL6R-L (antibody, human IgG1, name in EU numbering)
heavy: B1 heavy with E235D, L236Y, D239G, P273G
light: B1 light
notes: the list runs over r52 and r53; copies: 2 + 2
B3: IL6R-BP150/IL6R-L (antibody, human IgG1, name in EU numbering)
heavy: B1 heavy with L236Y, K332R
light: B1 light
notes: the list runs over r34 and r35; copies: 2 + 2
B4: IL6R-BP144/IL6R-L (antibody, human IgG1, name in EU numbering)
heavy: B1 heavy with K332A
light: B1 light
notes: copies: 2 + 2
B5: IL6R-BP147/IL6R-L (antibody, human IgG1, name in EU numbering)
heavy: B1 heavy with L236Y
light: B1 light
notes: the list runs over r28 and r29; copies: 2 + 2
B6: IL6R-BP177/IL6R-L (antibody, human IgG1, name in EU numbering)
heavy: B1 heavy with E235D, L236Y, P273G, A328D
light: B1 light
notes: the list runs over r41 and r42; copies: 2 + 2
B7: IL6R-BP086/IL6R-L (antibody, human IgG1, name in EU numbering)
heavy: B1 heavy with D239G
light: B1 light
notes: copies: 2 + 2
B8: IL6R-BP085/IL6R-L (antibody, human IgG1, name in EU numbering)
heavy: B1 heavy with A328K
light: B1 light
notes: copies: 2 + 2
B9: IL6R-BP089/IL6R-L (antibody, human IgG1, name in EU numbering)
heavy: B1 heavy with L236Y, D239G
light: B1 light
notes: copies: 2 + 2
B10: IL6R-BP126/IL6R-L (antibody, human IgG1, name in EU numbering)
heavy: B1 heavy with D239G, A328L, K332A
light: B1 light

What follows are binders tested against T5, human FcγRIa (human, UniProt P12314 16-292, limits assumed) (assay: SPR (Biacore), FcγR over captured antibody; binding amount divided by that of IL6R-BF648/IL6R-L x 100).
T5 construct: also called FcgRIa; FcγRI (CD64)
T5 sequence (P12314 16-292 limits assumed): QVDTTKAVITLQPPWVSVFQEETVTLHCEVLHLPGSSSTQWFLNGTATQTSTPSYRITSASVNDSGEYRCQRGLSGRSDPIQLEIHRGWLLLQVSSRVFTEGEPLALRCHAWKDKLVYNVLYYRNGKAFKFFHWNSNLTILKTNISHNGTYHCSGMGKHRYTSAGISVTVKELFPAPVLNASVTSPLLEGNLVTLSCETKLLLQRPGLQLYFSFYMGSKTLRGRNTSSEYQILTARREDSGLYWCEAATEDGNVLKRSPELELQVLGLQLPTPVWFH
Procedure: (§1) According to the following method, relative binding activities were calculated for the results of analyzing interactions with the respective FcγRs.

Binder	relative binding activity
B1	25 relative (IL6R-BF648/IL6R-L = 100)
B2	83 relative (IL6R-BF648/IL6R-L = 100)
B3	30 relative (IL6R-BF648/IL6R-L = 100)
B4	64 relative (IL6R-BF648/IL6R-L = 100)
B5	24 relative (IL6R-BF648/IL6R-L = 100)
B6	57 relative (IL6R-BF648/IL6R-L = 100)
B7	72 relative (IL6R-BF648/IL6R-L = 100)
B8	19 relative (IL6R-BF648/IL6R-L = 100)
B9	43 relative (IL6R-BF648/IL6R-L = 100)

The binders below were run against T1, human FcγRIIa type H in the same assay as above.
Procedure: as §1

Binder	relative binding activity
B1	166 relative (IL6R-BF648/IL6R-L = 100)
B2	191 relative (IL6R-BF648/IL6R-L = 100)
B3	770 relative (IL6R-BF648/IL6R-L = 100)
B4	108 relative (IL6R-BF648/IL6R-L = 100)
B5	582 relative (IL6R-BF648/IL6R-L = 100)
B6	409 relative (IL6R-BF648/IL6R-L = 100)
B7	116 relative (IL6R-BF648/IL6R-L = 100)
B8	158 relative (IL6R-BF648/IL6R-L = 100)
B9	186 relative (IL6R-BF648/IL6R-L = 100)

These binders were tested against T6, human FcγRIIIa type V (human, UniProt P08637 17-208, limits assumed) in the same assay as above.
T6 construct: also called FcgRIIIaV; FcγRIIIa(V)
T6 sequence (P08637 other isoform, or with tags, fused parts or gaps limits assumed): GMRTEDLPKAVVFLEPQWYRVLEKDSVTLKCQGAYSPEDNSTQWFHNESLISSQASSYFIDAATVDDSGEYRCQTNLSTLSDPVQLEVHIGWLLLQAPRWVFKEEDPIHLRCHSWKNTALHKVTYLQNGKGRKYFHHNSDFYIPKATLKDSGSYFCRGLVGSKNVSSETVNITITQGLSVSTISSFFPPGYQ
Procedure: as §1

Binder	relative binding activity
B1	122 relative (IL6R-BF648/IL6R-L = 100)
B2	113 relative (IL6R-BF648/IL6R-L = 100)
B3	204 relative (IL6R-BF648/IL6R-L = 100)
B4	128 relative (IL6R-BF648/IL6R-L = 100)
B5	209 relative (IL6R-BF648/IL6R-L = 100)
B6	186 relative (IL6R-BF648/IL6R-L = 100)
B7	123 relative (IL6R-BF648/IL6R-L = 100)
B8	104 relative (IL6R-BF648/IL6R-L = 100)
B9	136 relative (IL6R-BF648/IL6R-L = 100)

Biological target: T2, human FcγRIIa type R
Experiment: as above
Procedure: as §1

Binder	relative binding activity
B1	377 relative (IL6R-BF648/IL6R-L = 100)
B2	423 relative (IL6R-BF648/IL6R-L = 100)
B3	757 relative (IL6R-BF648/IL6R-L = 100)
B4	204 relative (IL6R-BF648/IL6R-L = 100)
B5	650 relative (IL6R-BF648/IL6R-L = 100)
B6	691 relative (IL6R-BF648/IL6R-L = 100)
B7	155 relative (IL6R-BF648/IL6R-L = 100)
B8	279 relative (IL6R-BF648/IL6R-L = 100)
B9	222 relative (IL6R-BF648/IL6R-L = 100)

What follows are binders tested against T3, human FcγRIIb in the same assay as above.
Procedure: as §1

Binder	relative binding activity
B1	161 relative (IL6R-BF648/IL6R-L = 100)
B2	164 relative (IL6R-BF648/IL6R-L = 100)
B3	183 relative (IL6R-BF648/IL6R-L = 100)
B4	121 relative (IL6R-BF648/IL6R-L = 100)
B5	177 relative (IL6R-BF648/IL6R-L = 100)
B6	177 relative (IL6R-BF648/IL6R-L = 100)
B7	137 relative (IL6R-BF648/IL6R-L = 100)
B8	152 relative (IL6R-BF648/IL6R-L = 100)
B9	147 relative (IL6R-BF648/IL6R-L = 100)

Each binder was assayed against T7, human FcγRIa (human, UniProt P12314 16-292, limits assumed) (assay: SPR (Biacore), FcγR over captured antibody; binding amount relative to IL6R-BF648/IL6R-L x100).
T7 construct: also called FcyRIa; CD64
T7 sequence (P12314 16-292 limits assumed): as the sequence (P12314 16-292 limits assumed) above

Binder	relative binding
B10	113 % of IL6R-BF648/IL6R-L

The binders below were run against T4, human FcγRIIa type H in the same assay as above.

Binder	relative binding
B10	132 % of IL6R-BF648/IL6R-L
